Data taken from US20180291072.

Columns and labels:
[1] = target: KLAK-sFt-GFP fusion peptide (pro-apoptotic peptide-ferritin monomer fragment-linker-GFP fusion polypeptide)
[2] = target: type II fusion peptide (pro-apoptotic peptide-linker-ferritin monomer fragment-linker-GFP fusion polypeptide)

B1: Recombinant MMP-2 (protein)
chain: YNFFPRKPKWDKNQITYRIIGYTPDLDPETVDDAFARAFQVWSDVTPLRFSRIHDGEADIMINFGRWEHGDGYPFDGKDGLLAHAFAPGTGVGGDSHFDDDELWTLGEGQVVRVKYGNADGEYCKFPFLFNGKEYNSCTDTGRSDGFLWCSTTYNFEKDGKYGFCPHEALFTMGGNAEGQPCKFPFRFQGTSYDSCTTEGRTDGYRWCGTTEDYDRDKKYGFCPETAMSTVGGNSEGAPCVFPFTFLGNKYESCTSAGRSDGKMWCATTANYDDDRKWGFCPDQGYSLFLVAAHEFGHAMGLEHSQDPGALMAPIYTYTKNFRLSQDDIKGIQELYGASPDIDLGTGPTPTLGPVTPEICKQDIVFDGIAQIRGEIFFFKDRFIWRTVTPRDKPMGPLLVATFWPELPEKIDAVYEAPQEEKAVFFAGNEYWIYSASTLERGYPKPLTSLGLPPDVQRVDAAFNWSKNKKTYIFAGDKFWRYNEVKKKMDPGFPKLIADAWNAIPDNLDAVVDLQGGGHSYFFKGAYYLKLENQSLKSVKFGSIKSDWLGC
linker cleavage, SDS-PAGE of products [1]: each linker of type I fusion peptide and type II fusion peptide was cleaved, and products generated by the linker cleavage were observed in a concentration-dependent manner
linker cleavage, SDS-PAGE (sFt-GFP fusion peptide): sFt-GFP was more easily cleaved by MMP-2 as compared with wFt-GFP
linker cleavage, SDS-PAGE of products [2]: each linker of type I fusion peptide and type II fusion peptide was cleaved, and products generated by the linker cleavage were observed in a concentration-dependent manner
linker cleavage, SDS-PAGE (wFt-GFP fusion peptide): sFt-GFP was more easily cleaved by MMP-2 as compared with wFt-GFP
